Source: publication PMC12293770, “Mechanistic Insights into the Bornyl Diphosphate Synthase from Lavandula angustifolia” (Current Issues in Molecular Biology, 2025)

Legend:
Assay in all cases: GC-MS of hexane phase, Hanes-Woolf plot
Assay type in all cases: biochemical, Lavandula angustifolia
Details in all cases: 25 mM Tris-HCl pH 7.5, 10 mM MgCl2, 1 mM MnCl2, 30 °C, 2 h
[1] = substrate: CC(C)=CCC/C(C)=C/COP(=O)(O)OP(=O)(O)O
From the text: GC-MS of hexane phase, Hanes-Woolf plot on LaBPPS (WT)

[2] = substrate: CC(C)=CCC/C(C)=C/COP(=O)(O)OP(=O)(O)O; remark: listed apart in the source
From the text: GC-MS of hexane phase, Hanes-Woolf plot on ∆1–58

[3] = substrate: CC(C)=CCC/C(C)=C/COP(=O)(O)OP(=O)(O)O; remark: listed apart in the source
From the text: GC-MS of hexane phase, Hanes-Woolf plot on ∆1–74

[4] = substrate: CC(C)=CCC/C(C)=C/COP(=O)(O)OP(=O)(O)O; remark: listed apart in the source
From the text: GC-MS of hexane phase, Hanes-Woolf plot on ∆59–74

[5] = substrate: CC(C)=CCC/C(C)=C/COP(=O)(O)OP(=O)(O)O; remark: listed apart in the source
From the text: GC-MS of hexane phase, Hanes-Woolf plot on ∆578–602

B1: LaBPPS (WT) (Lavandula angustifolia subsp. angustifolia) (protein)
chain: MTAARSFMAINSNMTTDHLHKFGKKNLEFGQGYSCNNASPMRLRPCCSLKLSTNAESQLDSTRRSGMYKPTLWDFDRIQSLNSVYTEEKYSTRACDLIQQVKKLLEESDWFRQLQLIDDLQRLGLSYRFDDEINLILNTIYFEKKFCEKEMDLYSTSLAFRLLRQHGLKVSQEVFDCFKNEEGDFEARLGDETNGILEMCEASFLATEGEETLELARLFTTNILQKKLDDERNELLIMDDYLRTLIRHSLDLPLYWRVQRPSARWFIEAYATRSDMNPIMLELAKLDFNIVQATHQEELKQVSRWWKESRLAEKLPFARDRVVENYLWNRGMLFPPQYGYPRIMNAKLFVLITVLDDIYDVYGTLEETQLFTNLITRWDVEAIGQLPEYMRICYMAIDNNINELAYEVLKQHGLLIIQDLRKFWADLCVAYGKEAEWYYTGYKPTLEEYLEVAWVSISAHLILGYMFFLTSNPIEKEASQSLSNYHNIIRNSAMVLRLADDLGTSPYEMQRGDVPKAVECYMNENGASTEEAREYVKHLLREVWKETNGERFKESPFTPSFMRICADLGRMAQFMYQHGDGHGIRNLQMEDRIQSLIFEPIV
notes: full-length, codon-optimised gene, pHXGWA, E. coli Rosetta (DE3) pLysS, Talon resin, thrombin-cleaved; monomer by DLS
In the case of B1, the Km [1] is reported as 29.37 ± 1.21 µM and the kcat [1] is reported as 0.104 ± 0.00783 s⁻¹.

B2: ∆1–58 (Lavandula angustifolia subsp. angustifolia) (protein)
chain: LDSTRRSGMYKPTLWDFDRIQSLNSVYTEEKYSTRACDLIQQVKKLLEESDWFRQLQLIDDLQRLGLSYRFDDEINLILNTIYFEKKFCEKEMDLYSTSLAFRLLRQHGLKVSQEVFDCFKNEEGDFEARLGDETNGILEMCEASFLATEGEETLELARLFTTNILQKKLDDERNELLIMDDYLRTLIRHSLDLPLYWRVQRPSARWFIEAYATRSDMNPIMLELAKLDFNIVQATHQEELKQVSRWWKESRLAEKLPFARDRVVENYLWNRGMLFPPQYGYPRIMNAKLFVLITVLDDIYDVYGTLEETQLFTNLITRWDVEAIGQLPEYMRICYMAIDNNINELAYEVLKQHGLLIIQDLRKFWADLCVAYGKEAEWYYTGYKPTLEEYLEVAWVSISAHLILGYMFFLTSNPIEKEASQSLSNYHNIIRNSAMVLRLADDLGTSPYEMQRGDVPKAVECYMNENGASTEEAREYVKHLLREVWKETNGERFKESPFTPSFMRICADLGRMAQFMYQHGDGHGIRNLQMEDRIQSLIFEPIV
notes: N-terminal truncation, residues 1-58 deleted; E. coli, Talon resin, thrombin-cleaved
B2 gave a Km [2] of 28.12 ± 1.75 µM and a kcat [2] of 0.113 ± 0.00583 s⁻¹.

B3: ∆1–74 (Lavandula angustifolia subsp. angustifolia) (protein)
chain: FDRIQSLNSVYTEEKYSTRACDLIQQVKKLLEESDWFRQLQLIDDLQRLGLSYRFDDEINLILNTIYFEKKFCEKEMDLYSTSLAFRLLRQHGLKVSQEVFDCFKNEEGDFEARLGDETNGILEMCEASFLATEGEETLELARLFTTNILQKKLDDERNELLIMDDYLRTLIRHSLDLPLYWRVQRPSARWFIEAYATRSDMNPIMLELAKLDFNIVQATHQEELKQVSRWWKESRLAEKLPFARDRVVENYLWNRGMLFPPQYGYPRIMNAKLFVLITVLDDIYDVYGTLEETQLFTNLITRWDVEAIGQLPEYMRICYMAIDNNINELAYEVLKQHGLLIIQDLRKFWADLCVAYGKEAEWYYTGYKPTLEEYLEVAWVSISAHLILGYMFFLTSNPIEKEASQSLSNYHNIIRNSAMVLRLADDLGTSPYEMQRGDVPKAVECYMNENGASTEEAREYVKHLLREVWKETNGERFKESPFTPSFMRICADLGRMAQFMYQHGDGHGIRNLQMEDRIQSLIFEPIV
notes: N-terminal truncation, residues 1-74 deleted; E. coli, Talon resin, thrombin-cleaved
Work on B3 yielded a Km [3] of 41.72 ± 2.15 µM and a kcat [3] of 0.0532 ± 0.002 s⁻¹.

B4: ∆59–74 (Lavandula angustifolia subsp. angustifolia; DEL59-74) (protein)
chain: MTAARSFMAINSNMTTDHLHKFGKKNLEFGQGYSCNNASPMRLRPCCSLKLSTNAESQFDRIQSLNSVYTEEKYSTRACDLIQQVKKLLEESDWFRQLQLIDDLQRLGLSYRFDDEINLILNTIYFEKKFCEKEMDLYSTSLAFRLLRQHGLKVSQEVFDCFKNEEGDFEARLGDETNGILEMCEASFLATEGEETLELARLFTTNILQKKLDDERNELLIMDDYLRTLIRHSLDLPLYWRVQRPSARWFIEAYATRSDMNPIMLELAKLDFNIVQATHQEELKQVSRWWKESRLAEKLPFARDRVVENYLWNRGMLFPPQYGYPRIMNAKLFVLITVLDDIYDVYGTLEETQLFTNLITRWDVEAIGQLPEYMRICYMAIDNNINELAYEVLKQHGLLIIQDLRKFWADLCVAYGKEAEWYYTGYKPTLEEYLEVAWVSISAHLILGYMFFLTSNPIEKEASQSLSNYHNIIRNSAMVLRLADDLGTSPYEMQRGDVPKAVECYMNENGASTEEAREYVKHLLREVWKETNGERFKESPFTPSFMRICADLGRMAQFMYQHGDGHGIRNLQMEDRIQSLIFEPIV
notes: internal deletion of residues 59-74; E. coli, Talon resin, thrombin-cleaved
B4 showed a Km [4] of 38.49 ± 2.58 µM and a kcat [4] of 0.0562 ± 0.007 s⁻¹.

B5: ∆578–602 (Lavandula angustifolia subsp. angustifolia) (protein)
chain: MTAARSFMAINSNMTTDHLHKFGKKNLEFGQGYSCNNASPMRLRPCCSLKLSTNAESQLDSTRRSGMYKPTLWDFDRIQSLNSVYTEEKYSTRACDLIQQVKKLLEESDWFRQLQLIDDLQRLGLSYRFDDEINLILNTIYFEKKFCEKEMDLYSTSLAFRLLRQHGLKVSQEVFDCFKNEEGDFEARLGDETNGILEMCEASFLATEGEETLELARLFTTNILQKKLDDERNELLIMDDYLRTLIRHSLDLPLYWRVQRPSARWFIEAYATRSDMNPIMLELAKLDFNIVQATHQEELKQVSRWWKESRLAEKLPFARDRVVENYLWNRGMLFPPQYGYPRIMNAKLFVLITVLDDIYDVYGTLEETQLFTNLITRWDVEAIGQLPEYMRICYMAIDNNINELAYEVLKQHGLLIIQDLRKFWADLCVAYGKEAEWYYTGYKPTLEEYLEVAWVSISAHLILGYMFFLTSNPIEKEASQSLSNYHNIIRNSAMVLRLADDLGTSPYEMQRGDVPKAVECYMNENGASTEEAREYVKHLLREVWKETNGERFKESPFTPSFMRICADLGRMAQFMYQ
notes: C-terminal truncation, residues 578-602 deleted; E. coli, Talon resin, thrombin-cleaved
In the case of B5, the Km [5] is reported as 14.83 ± 1.09 µM and the kcat [5] is reported as 0.195 ± 0.0143 s⁻¹.
